Assay results from PMC6457497, “The H3K27me3 demethylase REF6 promotes leaf senescence through directly activating major senescence regulatory and functional genes in Arabidopsis”.

T1: GST-REF6C (C2H2 ZnF domain) (Arabidopsis thaliana, UniProt Q9STM3 1239-1360)
T1 sequence: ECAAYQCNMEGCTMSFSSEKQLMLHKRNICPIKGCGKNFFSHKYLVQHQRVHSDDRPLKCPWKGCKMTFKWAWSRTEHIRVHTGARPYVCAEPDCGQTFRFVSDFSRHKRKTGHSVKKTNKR

B1: NYE1 WT probe (dsDNA)
DNA 1: AAAGGAGTCTCTCTGTATTTAGTGGCGT
DNA 2: ACGCCACTAAATACAGAGAGACTCCTTT
B2: ORE1 WT probe (dsDNA)
DNA 1: TACTCGGATCCTCTGTTTTTACAAGACA
DNA 2: TGTCTTGTAAAAACAGAGGATCCGAGTA
B3: NYE2 WT probe (dsDNA)
DNA 1: CAAAAAGGGTCTCTGTATTTAGTTATTA
DNA 2: TAATAACTAAATACAGAGACCCTTTTTG
B4: EIN2 WT probe (dsDNA)
DNA 1: AGGAACCATTCTCTGGATAAACCCTAGC
DNA 2: GCTAGGGTTTATCCAGAGAATGGTTCCT
B5: NAP WT probe (dsDNA)
DNA 1: TTTCTCCAAACTCTGTTTTCTCTGTAAA
DNA 2: TTTACAGAGAAAACAGAGTTTGGAGAAA

Tests used:
[1] = molecular target: T1, GST-REF6C (C2H2 ZnF domain); experiment: EMSA; competed by excess unlabeled probe; Light Shift EMSA kit binding buffer (composition, salt, pH not stated), poly(dI-dC), 4 ug protein in 20 ul, room temperature 30 min; 5% polyacrylamide gel with; conditions: protein: recombinant; tags: N-terminal GST; label: biotin; blunt
[2] = molecular target: T1, GST-REF6C (C2H2 ZnF domain); experiment: EMSA; Light Shift EMSA kit binding buffer (composition, salt, pH not stated), poly(dI-dC), 4 ug protein in 20 ul, room temperature 30 min; 5% polyacrylamide gel with; conditions: protein: recombinant; tags: N-terminal GST; label: biotin; blunt

Binder | binding result [1] | binding result [2]
B1 | binds | –
B2 | – | binds
B3 | – | binds
B4 | – | binds
B5 | – | binds
